Patent US20100016697

T1: MT1-MMP specific fluorogenic substrate MCA-Pro-Leu-Ala-Cys(p-OmeBz)-Trp-Ala-Arg(Dpa)-NH2
T1 chain: PLACWAR

B1: a disintegrin and metalloproteinase (ADAM)-10 (R&D Systems) (protein)
chain: TTSAEKNTCQLYIQTDHLFFKYYGTREAVIAQISSHVKAIDTIYQTTDFSGIRNISFMVKRIRINTTADEKDPTNPFRFPNIGVEKFLELNSEQNHDDYCLAYVFTDRDFDDGVLGLAWVGAPSGSSGGICEKSKLYSDGKKKSLNTGIITVQNYGSHVPPKVSHITFAHEVGHNFGSPHDSGTECTPGESKNLGQKENGNYIMYARATSGDKLNNNKFSLCSIRNISQVLEKKRNNCFVESGQPICGNGMVEQGEECDCGYSDQCKDECCFDANQPEGRKCKLKPGKQCSPSQGPCCTAQCAFKSKSEKCRDDSDCAREGICNGFTALCPASDPKPNFTDCNRHTQVCINGQCAGSICEKYGLEECTCASSDGKDDKELCHVCCMKKMDPSTCASTGSVQWSRHFSGRTITLQPGSPCNDFRGYCDVFMRCRLVDADGPLARLKKAIFSPELYENIAE
B2: MMP-2 (part of MMP-2/9, Chemicon) (protein)
chain: YNFFPRKPKWDKNQITYRIIGYTPDLDPETVDDAFARAFQVWSDVTPLRFSRIHDGEADIMINFGRWEHGDGYPFDGKDGLLAHAFAPGTGVGGDSHFDDDELWTLGEGQVVRVKYGNADGEYCKFPFLFNGKEYNSCTDTGRSDGFLWCSTTYNFEKDGKYGFCPHEALFTMGGNAEGQPCKFPFRFQGTSYDSCTTEGRTDGYRWCGTTEDYDRDKKYGFCPETAMSTVGGNSEGAPCVFPFTFLGNKYESCTSAGRSDGKMWCATTANYDDDRKWGFCPDQGYSLFLVAAHEFGHAMGLEHSQDPGALMAPIYTYTKNFRLSQDDIKGIQELYGASPDIDLGTGPTPTLGPVTPEICKQDIVFDGIAQIRGEIFFFKDRFIWRTVTPRDKPMGPLLVATFWPELPEKIDAVYEAPQEEKAVFFAGNEYWIYSASTLERGYPKPLTSLGLPPDVQRVDAAFNWSKNKKTYIFAGDKFWRYNEVKKKMDPGFPKLIADAWNAIPDNLDAVVDLQGGGHSYFFKGAYYLKLENQSLKSVKFGSIKSDWLGC

Target: T1, MT1-MMP specific fluorogenic substrate …

Protein | fluorescence emission (cleavage of the quenched fluorogenic substrate)
B1 | Incubation with MMP-2/9, MMP-8, or ADAM-10 and 17 alone failed to cause fluorescence emission from the MT1-MMP substrate.
B2 | Incubation with MMP-2/9, MMP-8, or ADAM-10 and 17 alone failed to cause fluorescence emission from the MT1-MMP substrate.
